Here are results for four molecules from US20240228542A1, “LYTIC DOMAIN FUSION CONSTRUCTS, CHECKPOINT INHIBITORS, AND METHODS OF MAKING AND USING SAME” (A28 Therapeutics Inc., priority 2020, published 2024).

For orientation: IC50 means the concentration at which inhibition is half-maximal.

One assay has as its system MDA-MB-435S cells. Conditions: reported; cited from earlier work.
Assay [1] concerns the target T1, luteinizing hormone-releasing hormone (LHRH) receptor, on human cancer cell lines (human) (UniProt P30968).
T1 sequence (looked up): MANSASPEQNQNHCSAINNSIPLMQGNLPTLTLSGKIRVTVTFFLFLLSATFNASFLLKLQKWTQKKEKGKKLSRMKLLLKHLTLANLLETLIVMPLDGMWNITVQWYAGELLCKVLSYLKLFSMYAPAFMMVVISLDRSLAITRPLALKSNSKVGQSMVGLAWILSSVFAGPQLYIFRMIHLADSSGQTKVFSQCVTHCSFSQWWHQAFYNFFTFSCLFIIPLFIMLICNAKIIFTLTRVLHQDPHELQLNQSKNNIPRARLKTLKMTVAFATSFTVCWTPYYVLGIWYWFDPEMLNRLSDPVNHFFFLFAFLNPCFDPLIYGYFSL
Put plainly: cell-based or functional assay.

In assay [2] the target is T2, luteinizing hormone-releasing hormone receptor (LHRH-R), on murine cancer cell lines (mouse) (UniProt Q01776).
T2 sequence (looked up): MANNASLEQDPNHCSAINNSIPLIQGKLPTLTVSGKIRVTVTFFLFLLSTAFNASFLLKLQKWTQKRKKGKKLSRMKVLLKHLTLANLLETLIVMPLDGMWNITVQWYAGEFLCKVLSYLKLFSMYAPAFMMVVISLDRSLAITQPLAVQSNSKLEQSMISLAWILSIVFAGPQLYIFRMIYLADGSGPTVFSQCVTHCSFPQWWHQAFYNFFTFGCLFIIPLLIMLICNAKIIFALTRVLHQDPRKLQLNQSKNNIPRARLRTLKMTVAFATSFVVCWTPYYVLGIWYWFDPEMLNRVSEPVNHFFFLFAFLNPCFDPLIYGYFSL
In words: cell-based or functional assay.

The target in assay [3] is chorionic gonadotrophin (CG) receptor, on MDA-MB-435S.luc cells (human) (UniProt P22888). Put plainly: cell-based or functional assay.
Another assay has as its system OVCAR-3 xenograft. In words: OVCAR-3 ovarian cancer xenograft. As to conditions: for tumor volume: OVCAR-3 xenograft, CLIP71 2 mg/kg, cisplatinum 10 mg/kg. It is filed as in vivo, Nu/Nu mice. How it is done:
In brief, Nu/Nu female mice, inbred strain, age 5 weeks (Harlan-Sprague Dawley) were injected subcutaneously with a NIH:OVCAR-3 cells/Matrigel suspension (4.6×10^6 cells/mouse). Treatment was started on day 33 after tumor cell injection when the tumors were established and continued on days 41 and 47. The doses for the 3 weekly injections were 0.02, 0.2 and 2 mg/kg body weight, given as a single bolus intravenous injection via lateral tail vein administered once a week for three weeks on days 33, 41 and 47. Necropsies were conducted on day 52. Data are presented as mean […]SEM. Arrows show dosing.
A group of 9 tumor bearing mice was sacrificed on day 33 and served as baseline group. All mice were necropsied 51-52 days after tumor cell injection. Tumor volumes and bodyweights were recorded twice weekly during the study, as well as overall veterinarian examination of mice was conducted.
Primary tumors, liver, kidney, pancreas, heart, lung, and spleen were collected, fixed in formalin and prepared for histological evaluation. Tumor weights were measured at necropsy, part of the tumors were frozen at −80° C. for LH/CG and LHRH receptor assay determination.
As a biomarker for drug activity, CA 125 was determined in serum, collected from each individual mouse at necropsy using a Enzyme Linked Immunoassay for quantitative determination of ovarian cancer antigen CA125 (Assay kit Genway, Biotech, Inc. San Diego, CA, Catalog #40-052-115009, #BC-1013 according to the manufacturer).
LHRH receptor levels were assessed from formalin fixed tumors. Quantitative immunoperoxidase image analysis was conducted with the Ventana Image Analysis System (VIAS) adjunctive computer assisted image analysis system functionally connected to an interactive microscope (Axio Imager). The quantitative analysis was conducted with the program for quantification of Her2/neu receptor that included morphometric and colorimetric analysis. Receptor status results were reported as percentage of cells showing positive staining of the LHRH receptors under the following criteria: 0 non-immunoreactive, 1+: 1-25% positive, 2+: 26-50% positive, 3+: 51-75% positive cells.

The next assay has as its system AN3-CA. In words: Cytotoxicity in AN3-CA endometrial cancer cells. It is filed as cell-based. Conditions: AN3-CA endometrial cancer cell line; read-out: IC50 in Human Cancer Cell Lines. How it is done: (§1) MDA-MB-435S.luc cells were grown in Leibovitz's L 15 medium, 10% fetal bovine serum, 0.01 mg/ml bovine insulin, 100 IU/ml penicillin, 100 microg/ml streptomycin. The cells were cultured in tight closed flasks. The incubations were conducted using 96 well plates at 10,000 cells per well. Cells were typically seeded into 96 well plates and media was replaced after 48 hours of incubation. Each assay was conducted at increasing concentrations of 0, 0.001, 0.01, 0.05, 0.1, 0.5, 1, 2, 5, 10 and 100 micromolar doses of lytic peptide-binding domain conjugate. Each lytic peptide-binding domain conjugate provided in lyophilized form and was freshly dissolved in saline and added to cells. The duration of incubation was typically 24 h, and cell viability assays were conducted using formazan conversion assays (MTT assay). Controls contained saline or 0.1% triton as reference for 0 and 100% cell death, respectively.
(§2) To ascertain the IC50 of various fusion constructs on different human cancer cell lines compared to cisplatinum, IC50 of fusion constructs were evaluated as in Table 3.

The next assay concerns LNCaP. In words: Cytotoxicity in LNCaP prostate cancer cells. It is filed as cell-based. Conditions: LNCaP prostate cancer cell line; read-out: IC50 in Human Cancer Cell Lines. How it is done: as §1, §2
A further assay relates to SKOV-3. Put plainly: Cytotoxicity in SKOV-3 ovarian cancer cells. It counts as cell-based. Conditions: SKOV-3 ovarian cancer cell line; read-out: IC50 in Human Cancer Cell Lines. How it is done: as §1, §2
For another assay, the system named is OVCAR-3. In words: Cytotoxicity in OVCAR-3 ovarian cancer cells. It counts as cell-based. As to conditions: OVCAR-3 ovarian cancer cell line; read-out: IC50 in Human Cancer Cell Lines. How it is done: as §1, §2

`COc1cccc2c1C(=O)c1c(O)c3c(c(O)c1C2=O)C[C@@](O)(C(=O)CO)C[C@@H]3O[C@H]1C[C@H](N)[C@H](O)[C@H](C)O1` [doxorubicin]: the “time to destroy human melanoma cells in vitro” value in the assay with MDA-MB-435S cells is 4 h.
As for Phor18-LHRH (338613) (peptide), in [1], the IC50 of cytotoxicity (MTT), MDA-MB-435S cells, 0.5 hour turned out to be 1.2 µM; the IC50 of cytotoxicity (MTT), MDA-MB-435S cells, 1 hour stood at 0.6 µM; the IC50 of cytotoxicity (MTT), OVCAR-3 cells, increasing incubation time, value 1 of 7 is 6.7 µM; the IC50 of cytotoxicity (MTT), OVCAR-3 cells, increasing incubation time, value 2 of 7 came out at 5.6 µM. Moreover, in assay [1], the IC50 of cytotoxicity (MTT), OVCAR-3 cells, increasing incubation time, value 3 of 7 turned out to be 5.3 µM; the IC50 of cytotoxicity (MTT), OVCAR-3 cells, increasing incubation time, value 4 of 7 stood at 1.6 µM; the IC50 of cytotoxicity (MTT), OVCAR-3 cells, increasing incubation time, value 5 of 7 was 1.5 µM; the IC50 of cytotoxicity (MTT), OVCAR-3 cells, increasing incubation time, value 6 of 7 came to 0.5 µM. The IC50 of cytotoxicity (MTT), OVCAR-3 cells, increasing incubation time, value 7 of 7 in assay [1] worked out at 0.5 µM. In assay [2], this molecule had an IC50 of cell viability, murine ovarian cancer cell lines, 72 hours of 1 to 1.3 µM; an IC50 of cytotoxicity (CellTiter Glo), EMT-6 cells, 4 h of 5.8 µM; an IC50 of cytotoxicity (CellTiter Glo), EMT-6 cells, 8 h of 5.7 µM; an IC50 of cytotoxicity (CellTiter-Glo), 2C12 cells, 24 h of 1.02 µM. In assay [2], the IC50 of cytotoxicity (CellTiter-Glo), ID8 cells, 24 h amounted to 1.37 µM; the IC50 of cytotoxicity (CellTiter-Glo), IF5 cells, 24 h was 1.01 µM; the IC50 of cytotoxicity (CellTiter-Glo), IG10 cells, 24 h is 1.03 µM; the IC50 of cytotoxicity (CellTiter-Glo), cell line printed as 242, 24 h was 1.38 µM.
As for Phor21-βCG-ala (323033) (peptide), the IC50 of cytotoxicity, MDA-MB-435S.luc cells (carry CG receptors) in assay [3] is 2.3 µM.
As to `N.N.[Cl][Pt][Cl]` [Cisplatinum, reference compound], the tumor weights entry in the assay on OVCAR-3 xenograft (OVCAR-3 xenograft at necropsy) is recorded as “not effective in reducing tumor weights”. In addition, the tumor volume entry is “no reduction in tumor volume” in the assay with OVCAR-3 xenograft and “tumor growth was observed” with OVCAR-3 xenograft (listed as cisplatinum). For the same molecule, the IC50 with AN3-CA worked out at 11.8 ± 0.16 µM; in the assay with LNCaP it was 19.9 ± 1.4 µM; with SKOV-3, 321 ± 10 µM; in the assay with OVCAR-3, 184 µM.
